What all share (assay): EMSA
For orientation: Mobility shift assays separate free from complexed probe on a gel.

Data set [1] deals with T1, TDP43(WT) (UniProt Q13148 1-414).
For data set [2], the target named is T1, TDP43(WT). The source holds these as a separate data set.
Data set [3] deals with T1, TDP43(WT). This is another data set of the same source.

One may read the Kd as the constant that tells how readily two partners part at equilibrium. Lower therefore signals tighter binding.

Where two headings read alike, the source gives them in different places.

T1 sequence (Q13148 whole entry): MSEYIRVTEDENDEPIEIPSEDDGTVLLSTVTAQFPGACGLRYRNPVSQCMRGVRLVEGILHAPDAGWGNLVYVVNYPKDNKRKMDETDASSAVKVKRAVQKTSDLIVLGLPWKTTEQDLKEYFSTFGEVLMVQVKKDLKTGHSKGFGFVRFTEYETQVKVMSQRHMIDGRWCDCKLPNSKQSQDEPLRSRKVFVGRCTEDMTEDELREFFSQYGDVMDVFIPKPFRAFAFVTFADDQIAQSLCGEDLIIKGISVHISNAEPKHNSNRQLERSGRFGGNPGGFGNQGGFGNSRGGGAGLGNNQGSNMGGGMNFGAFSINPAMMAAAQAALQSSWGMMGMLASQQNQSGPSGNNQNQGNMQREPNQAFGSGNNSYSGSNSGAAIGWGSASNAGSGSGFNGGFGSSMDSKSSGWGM

B1: (UG)12 (ssRNA)
RNA: UGUGUGUGUGUGUGUGUGUGUGUG
The molecule B1 yielded a dissociation constant (Kd) in data set [1] of 0.35 ± 0.1 nM.

B2: (AT)12 (ssDNA)
DNA: ATATATATATATATATATATATAT
B2: the binding result in data set [2] is given as “no binding”.

B3: (GC)12 (ssDNA)
DNA: GCGCGCGCGCGCGCGCGCGCGCGC
Consider B3, for which the binding result in data set [2] was “no binding”.

B4: (TG)12 (ssDNA)
DNA: TGTGTGTGTGTGTGTGTGTGTGTG
As to B4, binding in data set [3] was put at a Kd of 7.4 ± 0.34 nM.

(Values after paper PMC6499398.)
